According to patent US12066430:

Legend:
Experiment in all cases: cell-based or functional assay
[1] = biological target: single-chain trimer (SCT) of HLA-A2/MART1 26-35(A27L), on cells (human)
[2] = biological target: HLA-A2 on control CD80+HLA-A2+ K562 cells (no defined peptide) (human)
[3] = biological target: single-chain trimer (SCT) of HLA-A2/NYESO1 157-165(C165V), on cells (human)
[4] = biological target: single-chain trimer (SCT) of HLA-A2 with the USP7 mutant 9-mer peptide …, on K562 cells (human)

Question: What does the source list for “1G4 TCR (A2/NYESO1 157-165-specific), expressed on cells”?
Answer: percentage of trogocytosis^+ MART1-K562 cells (one per 10,000 control cells) [1]: 1.6%; share of MART1-K562 among trogocytosis^- target cells (1:1 mixture, co-incubated with 1G4-Jurkat) [1]: 70.8%; percentage of trogocytosis^+ control CD80^+HLA-A2^+ K562 cells (NYESO1-K562 dilution experiment) [2]: 0.33%; percentage of trogocytosis^+ control cells (MART1-K562 dilution experiment) [2]: 0.41%; percentage of trogocytosis^+ NYESO1-K562 target cells (diluted 1:10,000 in control cells) [3]: 70.8%; share of NYESO1-K562 among trogocytosis^+ target cells (1:1 mixture of NYESO1-K562 and MART1-K562, read by TCR dextramer staining) [3]: 95.1%; share of NYESO1-K562 among trogocytosis^- target cells (1:1 mixture, co-incubated with 1G4-Jurkat) [3]: 23.7%; trogocytosis (TCR transfer to K562) of CD8 co-expressing Jurkat cells relative to those only expressing TCR [3]: 3 fold

Question: What does the source list for “F5 TCR (HLA-A2/MART1 26-35-specific), expressed on cells”?
Answer: Specific Cytotoxic Killing (Avg. % Specific Lysis), E:T 2 to 1 (Avg. % Specific Lysis) [1]: 0.16; Specific Cytotoxic Killing (Avg. % Specific Lysis), E:T 4 to 1 (Avg. % Specific Lysis) [1]: 0.268; Specific Cytotoxic Killing (Avg. % Specific Lysis), E:T 8 to 1 (Avg. % Specific Lysis) [1]: 0.377; Specific Cytotoxic Killing (Avg. % Specific Lysis), E:T 16 to 1 (Avg. % Specific Lysis) [1]: 0.593; percentage of trogocytosis^+ MART1-K562 cells (one per 10,000 control cells) [1]: 73.4%; share of MART1-K562 among trogocytosis^+ target cells (1:1 mixture, co-incubated with F5-Jurkat) [1]: 94.9%; share of MART1-K562 among trogocytosis^- target cells (1:1 mixture, co-incubated with F5-Jurkat) [1]: 18.8%; shift in LNGFR and TCR staining of K562 target cells [1]: 2 to 3 fold; shift in streptavidin staining of K562 target cells (transfer of biotinylated Jurkat membrane proteins) [1]: 3.5 fold; trogocytosis (TCR transfer to K562) of CD8 co-expressing Jurkat cells relative to those only expressing TCR [1]: 3 fold; percentage of trogocytosis^+ control CD80^+HLA-A2^+ K562 cells (NYESO1-K562 dilution experiment) [2]: 0.35%; percentage of trogocytosis^+ control cells (MART1-K562 dilution experiment) [2]: 0.46%; Specific Cytotoxic Killing (Avg. % Specific Lysis), E:T 2 to 1 (Avg. % Specific Lysis) [4]: 0.0644; Specific Cytotoxic Killing (Avg. % Specific Lysis), E:T 4 to 1 (Avg. % Specific Lysis) [4]: 0.0366; Specific Cytotoxic Killing (Avg. % Specific Lysis), E:T 8 to 1 (Avg. % Specific Lysis) [4]: 0.0406; Specific Cytotoxic Killing (Avg. % Specific Lysis), E:T 16 to 1 (Avg. % Specific Lysis) [4]: 0; percentage of trogocytosis^+ NYESO1-K562 target cells (diluted 1:10,000 in control cells) [3]: 0%; share of NYESO1-K562 among trogocytosis^- target cells (1:1 mixture, co-incubated with F5-Jurkat) [3]: 76.3%
